B2: ParC55 breakage-reunion domain of S. pneumoniae topo IV (domain or fragment, Streptococcus pneumoniae)
chain: MSNIQNMSLEDIMGERFGRYSKYIIQDRALPDIRDGLKPVQRRILYSMNKDSNTFDKSYRKSAKSVGNIMGNFHPHGDSSIYDAMVRMSQNWKNREILVEMHGNNGSMDGDPPAAMRYTEARLSEIAGYLLQDIEKKTVPFAWNFDDTEKEPTVLPAAFPNLLVNGSTGISAGYATDIPPHNLAEVIDAAVYMIDHPTAKIDKLMEFLPGPDFPTGAIIQGRDEIKKAYETGKGRVVVRSKTEIEKLKGGKEQIVITEIPYEINKANLVKKIDDVRVNNKVAGIAEVRDESDRDGLRIAIELKKDANTELVLNYLFKYTDLQINYNFNMVAIDNFTPRQVGIVPILSSYIAHRREVILARSRFDKEKAEKRLHIVEGLIRVISILDEVIALIRASENKADAKENLKVSYDFTEEQAEAIVTLQLYRLTNTDVVVLQEEEAELREKIAMLAAIIGDERTMYNLMKKELREVKKKFATPRLSSLEDTAKALE
modifications: Y118 covalently linked to the 5′-phosphate of the cleaved DNA (phosphotyrosyl linkage)
notes: ParC55, the breakage-reunion domain of topoisomerase IV subunit ParC, S. pneumoniae; residues 247-734 of the printed fusion; In the crystals this domain stood on one chain with ParE30, joined through one extra histidine, as the fusion protein m1; also called ParC domains; ParC dimer; source: E. coli BL21(λDE3) pLysS, purified to >95% homogeneity (as part of the ParE30-ParC55 fusion protein)

Assays:
[1] = target: B2; test: crystal structure; ParE30-ParC55 fusion protein (4.5 mg/ml) mixed with 18-mer V-site or E-site duplex DNA at 1:1.2 molar ratio, 2 mM delafloxacin, 10 mM MgCl2; sitting-drop vapour diffusion, 50 mM sodium cacodylate, 62.5 mM KCl, 7.5 mM MgCl2, 2.5% Tacsimate, 5.5–7% isopropanol, pH 6.5, 301 K; V18 with PEGylated graphene nucleant 2.0 Å, V18 and E18 without 2.4 Å; conditions: both partners purified
[2] = target: the molecule itself; test: as above

B1: ParE30 metal binding TOPRIM domain of S. pneumoniae topo IV (domain or fragment, Streptococcus pneumoniae)
chain: MKNKKDKGLLSGKLTPAQSKNPAKNELYLVEGDSAGGSAKQGRDRKFQAILPLRGKVINTAKAKMADILKNEEINTMIYTIGAGVGADFSIEDANYDKIIIMTDADTDGAHIQTLLLTFFYRYMRPLVEAGHVYIALPPLYKMSKGKGKKEEVAYAWTDGELEELRKQFGKGATLQRYKGLGEMNADQLWETTMNPETRTLIRVTIEDLARAERRVNVLMGDKVEPRRKWIEDNVKFTLEEATVF
notes: residues 2-245 of the printed fusion; In the crystals this domain stood on one chain with ParC55, joined through one extra histidine, as the fusion protein m1; also called ParE TOPRIM domain; ParE domains; source: E. coli BL21(λDE3) pLysS, purified to >95% homogeneity (as part of the ParE30-ParC55 fusion protein)
Does B1 bind [1]?
Result: binds

Does B2 bind [2]?
Result: binds
